We go through one substance from patent US20230295305A1.

This experiment deals with biotinylated pHLA: HLA subtype A*02:01 complexed with … (HLA-PEPTIDE target G8) (human). As to the kind of experiment: MSD U-PLEX, periplasmic extract on biotinylated pHLA; ratio of target signal to OTLA signal.

On to Negative control (MSD screen), for which the Average Target/OTLA stood at 1, the Target/OTLA 61 was determined as 1, the Target/OTLA 67 is 2 and the Target/OTLA 246 was found to be 1. The Target/OTLA 250 is 1.
